Test results published in US20180155692A1.
Values belong to the substance of their own block, whether it stands above or below them.

Biological target: activin-like kinase receptor 3 (ALK3) (human) (UniProt P36894)
Assay: cell-based or functional assay

Chain of Bone morphogenetic protein 7 (BMP-7) (P18075 293-431 limits assumed): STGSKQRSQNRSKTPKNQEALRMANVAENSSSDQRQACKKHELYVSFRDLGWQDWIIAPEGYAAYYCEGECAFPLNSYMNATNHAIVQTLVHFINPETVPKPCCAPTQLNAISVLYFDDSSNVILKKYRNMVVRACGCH
Chain of activin-like kinase receptor 3 (ALK3) (human) (P36894 24-532): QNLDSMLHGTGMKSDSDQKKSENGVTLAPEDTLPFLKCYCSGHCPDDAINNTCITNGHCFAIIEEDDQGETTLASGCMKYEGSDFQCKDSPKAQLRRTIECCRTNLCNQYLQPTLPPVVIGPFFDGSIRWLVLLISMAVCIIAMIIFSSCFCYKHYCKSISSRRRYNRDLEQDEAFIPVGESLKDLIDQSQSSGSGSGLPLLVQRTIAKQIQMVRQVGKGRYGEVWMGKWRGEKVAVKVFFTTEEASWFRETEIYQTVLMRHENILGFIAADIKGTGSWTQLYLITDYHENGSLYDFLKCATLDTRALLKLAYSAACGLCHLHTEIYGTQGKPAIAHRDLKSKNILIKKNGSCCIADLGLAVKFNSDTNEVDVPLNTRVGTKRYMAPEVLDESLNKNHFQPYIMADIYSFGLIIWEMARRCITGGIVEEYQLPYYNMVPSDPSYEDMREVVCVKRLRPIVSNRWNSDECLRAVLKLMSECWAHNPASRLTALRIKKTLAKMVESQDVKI

C-peptide induction on hNEPT, fold vs. t=0 (n=4): 318 fold
Substance: THR-123 (peptide)

C-peptide production on hNEPT, fold vs. t=0 (n=6): 198 fold
Substance: Bone morphogenetic protein 4 (BMP-4) (from UniProt P12644 293-408) (ligand)

BMP-7-mediated induction of C-peptide compared to t=0 (n=4), BMP-7 alone: 314 fold | BMP-7-mediated induction of C-peptide compared to t=0 (n=4), in the presence of dorsomorphin (inhibitor of SMAD1/5/8 phosphorylation): 108 fold | C-peptide induction on hNEPT, fold vs. t=0 (n=4, comparison with THR-123): 261 fold | C-peptide production on hNEPT, fold vs. t=0 (n=6, comparison with BMP-4): 156 fold | insulin expression by qRT-PCR in ALK3+-sorted cells vs. non-BMP-7 treated controls: 1000 fold
Substance: Bone morphogenetic protein 7 (BMP-7) (from UniProt P18075 293-431) (ligand)
